# Experimental data reported in patent US9345682B2, “Inhibition of STAT3 signal transduction for human cancer therapy” (University of South Florida, priority 1999, dated 2016).
# Non-standard residues stand in square brackets, D forms with d. No end group written: not given here. pY = N[C@@H](Cc1ccc(OP(=O)(O)O)cc1)C(=O)O
# Key:
# [1] = system: Bcl-xL overexpressing U266 cells; assay: Drug-induced apoptosis in U266 cells overexpressing Bcl-xL; type: cell-based, human; conditions: stable U266 clones overexpressing Bcl-xL; 24 h for melphalan and mitoxantrone
# Description: FIG. 23 Enforced Overexpression of Bcl-x Confers Resistance to Chemotherapy. Panel A: U266 cells are transfected with a CMV expression vector encoding Bcl-x, tagged with the FLAG epitope. Several stable, independent clones overexpressing Bcl-xL, as well as empty vector controls (Neo), are isolated and analyzed by Western blot with antibodies to Bcl-xL, or the FLAG epitope tag. B: The indicated cell lines are incubated with either melphalan (LPAM) or mitoxantrone for 24 h, and apoptosis is monitored by AnnexinV-FITC staining and flow cytometry. Overexpression of Bcl-xL protects the cells from chemotherapy-induced apoptosis.
# These Bcl-xL overexpressing cells are resistant to apoptosis induced by AG490, as predicted since the ectopic Bcl-xL is expressed from a CMV promoter and is thus independent of JAK-STAT signaling. […] These findings support one embodiment of the present invention, that Bcl-x confers resistance to chemotherapy-induced apoptosis, and therefore that inhibition of STAT3 signaling promotes chemotherapy-induced apoptosis.
# STAT3 = target: T1, STAT3 (Homo sapiens, UniProt P40763); assay: Disruption of STAT3 DNA-binding activity in vitro by synthetic peptides; conditions: ne = no effect
# T1 construct: made in house; host or cells: Sf9 insect cells co-infected with baculoviruses for STAT3 and Src or Fes (cell extracts)
# Description: A novel non-radioactive, 96-well plate based assay is used for measuring STAT3 DNA-binding activity (FIG. 30). In this high throughput assay, a biotinylated hSIE probe is used in place of the ^32P-labeled hSIE probe used for EMSA to detect binding of STAT3 dimers. The hSIE oligonucleotide is a high-affinity mutant of the original sis-inducible element in the C-fos gene promoter that binds STAT3. The biotinylated hSIE probe is immobilized onto a streptavidin-coated 96-well plate, permitting a large number of compounds and concentrations to be tested in a single experiment. The source of activated STAT3 is extracts derived from Sf9 insect cells co-infected with baculoviruses encoding STAT3 and either the Src or Fes tyrosine kinases. Using this baculovirus expression system, high levels of activated STAT3 dimers are produced as a result of phosphorylation by the co-expressed tyrosine kinases. Activated STAT3 is added to the 96-well plate in the presence or absence of the compounds to be screened. After incubation for 30 min with compounds, STAT3 dimers that bind to the biotinylated hSIE probe are detected with an anti-Stat3 primary antibody (Santa Cruz Biotechnology) followed by a horseradish-peroxidase conjugated secondary antibody. Immune complexes are detected by colorimetric conversion of the substrate, 3,3′,5,5′-tetramethylbenzidine (TMB) peroxidase, using a conventional ELISA plate reader. Epitope tagged versions of STAT3 expressed from baculoviruses have also been generated that are detected using the cognate primary antibodies. We find these anti-tag antibodies to be more sensitive and/or specific.
# To facilitate these high throughput, 96-well plate assays, the screening is automated using an available Beckman 2000 Biotek robotics workstation coupled to an ELISA plate reader. The computer-programmed robotics workstation has multi-volume, multi-component mixing capability that greatly accelerates all of the high throughput assays. Inhibition of STAT3 DNA-binding activity in this assay is readily detected as a loss of signal relative to the controls without added compound. As a positive control and to establish the DNA-binding specificity, activated STAT3 is added in the presence of either excess free hSIE oligonucleotide for competition or a non-binding oligonucleotide, FIRE. […] As a negative control, extracts from IFNa-stimulated cells are used as a source of STAT1, which also binds the hSIE. Initial screens are performed at high concentrations of compounds (e.g., 100 uM), and active compounds are further tested in concentration-response studies.
# A total of 19 synthetic peptides are tested based on the PY*LKTK sequence (Y*=phosphotyrosine) and their IC50 is determined in terms of disruption of STAT3 DNA-binding activity in vitro (Table 3).
# Full length STAT3 = target: T2, Full length STAT3 (Homo sapiens, UniProt P40763); assay: Phage display panning, 12-mer peptide library, on full-length GST-Stat3; type: binding
# T2 construct: Full-length GST-Stat3, immobilized to glutathione-Sepharose beads, is used to screen a display peptide library; made in house; host or cells: E. coli
# Description: Phage display peptide libraries are used because of two powerful features. First, phage libraries generate an enormous diversity of peptides that can be subjected to affinity selection by panning. […] These combinatorial libraries are based on random short peptide sequences fused to a coat protein of bacteriophage, herein pIII of the filamentous coliphage MI3. Panning of the peptide library using an immobilized target, herein STAT3 fusion proteins bound onto beads, is used to select for peptide sequences that bind to STAT3. […] Peptide sequences that occur at elevated frequencies are good candidates for ST4T3-specific binding peptides. […] These cyclic peptides have the advantage of reducing entropic freedom, thereby potentially increasing binding specificity and affinity relative to linear peptides. Another variation on this approach is to combine “affinity maturation” with the phage display peptide library [Scott & Smith, 1990, Science, 249:386-390].
# The GST-Stat3 fusion protein is purified on glutathione-Sepharose beads according to standard methods. The first library screened is obtained from a commercial source (New England Biolabs) and consists of random 12 amino acid sequences with a complexity of 1.9×10^9 independent transformants, each theoretically represented approximately 70 times in 1.4×10^11 phage particles. […] This is due to the inability of peptidases to cleave adjacent to proline residues in the peptide leader sequence, which is required for secretion. The titer of the original phage library after one round of amplification is 1.4×10^13 pfu/ml (plaque forming units per ml).
# For panning phage with the STAT3 fusion protein, 50 ul of glutathione-Sepharose beads bound to purified GST-Stat3 fusion protein are washed with phosphate buffered saline (PBS). The beads are then incubated with 10 ul of phage suspension (1.4×10^11 virions) in 200 ul final volume of PBS for 30 min at room temperature with occasional mixing. The beads are gently pelleted in a microcentrifuge, and washed 10 times with 1 ml of PBS to remove unbound phage. Background of non-specifically bound phage is reduced by a variety of methods, including pre-blocking the beads with bovine serum albumin, pre-clearing the phage library with GST-glutathione-Sepharose beads, and washing the beads with increasing salt concentrations. Bound phage virions are eluted from the beads by incubation with a molar excess of glutathione for 30 min at room temperature. A small aliquot of the phage eluate is titered and the rest is amplified on the E. coli ER2537 host strain. Following amplification, the phage are purified by polyethylene glycol (PEG) precipitation and then the titer is determined again. Using 1-2×10^11 phage particles from the amplified eluate as input, the above binding and amplification steps are repeated a total of 3 to 4 times. After the final titering step, 40-100 isolated plaques are amplified for DNA sequencing to identify a consensus binding sequence. Sequence analysis is performed by automated sequencing on a Pharmacia ALF sequencer.
# Full-length GST-Stat3, immobilized to glutathione-Sepharose beads, is used to screen a display peptide library containing 1.9×10^9 random 12-mer peptides positioned at the N-terminus of a minor coat protein (pIII) of the M13 filamentous bacteriophage. Based on their frequencies shown in Table 1, the five most promising peptides from a 12-mer peptide library that bind to full-length STAT3 are listed.
# U266 cells = assay: Fas-mediated apoptosis (Annexin V, flow cytometry) in U266 cells; type: cell-based, human; conditions: 500 ng/ml CH-11 or 100 ng/ml Fas ligand
# Description: For surface detection of the Fas receptor, 10^6 cells are suspended in […] PBS with 2.5 mg/ml mouse IgM (Sigma) and […] UB2 antibody (MBL) or IgG1, isotype control serum (Dako). Following 30 min incubation at room temperature, cells are washed with PBS, and incubated in the dark for 30 min with goat anti-mouse Ig-FITC. Fluorescence is measured on a FACScan flow cytometer and analyzed using CellQuest software (Becton Dickinson). For cell cycle analysis, 10^6 cells are fixed in ice-cold ethanol for a minimum of 2 h, washed with PBS, and stained with 5 mg/ml propidium iodide (PI) and […] at 37° C. for 30 min prior to analysis by flow cytometry. […] Apoptosis is measured by staining with Annexin V-FITC (Clontech) and flow cytometry analysis. Fas-specific death is calculated as (% Annexin V positive cells in the CH-11 treated population)−(% Annexin V positive cells in the IgM control population). Programmed cell death in cells transfected with the bicistronic green fluorescent protein vectors (pIRES-EGFP or pIRES-Stat3b) is analyzed after staining with Annexin V-PE (Pharmingen) by two color flow cytometry analysis. Apoptotic morphology of DAPI-stained nuclei and green/red fluorescence is confirmed by fluorescence microscopy.
# MPC11 tumors = assay: MPC11 myeloma tumor growth in vivo; design: species or system BALB/c mice; conditions: MPC11 tumor-bearing mice, rIL-12 alone, 200 ng every second day
# Description: Mice and tumor formation in vivo. Six- to eight-week old female BALB/c mice are obtained from the National Cancer Institute (Frederick, Md.). Cohorts of 3-5 mice per group are used for these experiments. Mice are shaved on the right flank and injected subcutaneously (s.c.) with 5×10^5 of either MOPC or MPC11 cells in […] of PBS to induce tumors.
# In vivo treatment with AG-490 and IL-12. When tumors reach about 5 […] in diameter, AG-490 treatment of tumors is initiated and continued daily for 7-10 days. For MOPC tumors, injections of 0.85 mg/day of AG-490 are given intratumorally, supplemented with 0.5 mg/day of AG-490 i.p. For MPC11 tumors, the intratumoral treatment is halved while the i.p. dose remains the same. Control mice receive 50% DMSO vehicle alone in the same volume as the AG-490 treatment group. Recombinant IL-12 is given s.c. at either 100 ng or 200 ng every other day. Tumor growth is monitored daily by measuring two perpendicular tumor diameters with a caliper, and tumor volume was calculated according to the formula V=0.52*a*b(a+b)/2 (a=smallest superficial diameter; b=largest superficial diameter).
# T1 sequence (P40763 whole entry, species assumed): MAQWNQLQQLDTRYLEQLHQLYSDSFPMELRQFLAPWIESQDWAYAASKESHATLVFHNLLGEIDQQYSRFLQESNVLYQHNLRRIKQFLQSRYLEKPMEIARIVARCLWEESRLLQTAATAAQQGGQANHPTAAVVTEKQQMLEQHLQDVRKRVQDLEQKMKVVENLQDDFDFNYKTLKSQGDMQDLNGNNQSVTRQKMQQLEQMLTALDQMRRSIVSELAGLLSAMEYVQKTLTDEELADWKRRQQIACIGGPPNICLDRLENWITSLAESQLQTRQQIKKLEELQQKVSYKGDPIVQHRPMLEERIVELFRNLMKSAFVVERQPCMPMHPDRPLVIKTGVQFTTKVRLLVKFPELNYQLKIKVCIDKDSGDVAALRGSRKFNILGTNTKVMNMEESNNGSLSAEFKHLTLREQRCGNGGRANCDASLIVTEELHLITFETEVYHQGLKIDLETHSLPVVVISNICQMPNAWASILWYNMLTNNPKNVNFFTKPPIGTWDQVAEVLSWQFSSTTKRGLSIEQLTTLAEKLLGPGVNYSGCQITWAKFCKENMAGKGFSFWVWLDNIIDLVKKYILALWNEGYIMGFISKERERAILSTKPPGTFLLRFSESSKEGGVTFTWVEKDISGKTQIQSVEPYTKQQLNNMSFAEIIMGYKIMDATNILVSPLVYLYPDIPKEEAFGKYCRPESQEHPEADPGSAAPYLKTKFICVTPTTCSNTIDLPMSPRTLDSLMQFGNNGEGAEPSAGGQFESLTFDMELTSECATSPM
# T2 sequence (P40763 whole entry, species assumed): as above
Molecule,"IC50, disruption of STAT3 DNA-binding activity (STAT3)",Frequency (out of 100 clones) (Full length STAT3) [%],other results
N[C@@H](Cc1ccc(N(CCCl)CCCl)cc1)C(=O)O [melphalan],–,–,apoptosis induced in Bcl-xL overexpressing cells [1]: resistant
"Y*LK ([pY]-Leu-Lys; listed as Homo sapiens) [synthetic peptide, Y* = phosphotyrosine]",ne,–,–
"PYLKTK [synthetic peptide, unphosphorylated]",ne,–,–
FSYPLTRAPLNM (listed as Homo sapiens),–,8,–
PFLKTK,ne,–,–
"PY*AKTK (P[pY]AKTK; listed as Homo sapiens) [synthetic peptide, Y* = phosphotyrosine]",ne,–,–
O=C1c2c(O)ccc(O)c2C(=O)c2c(NCCNCCO)ccc(NCCNCCO)c21 [mitoxantrone],–,–,apoptosis induced in Bcl-xL overexpressing cells [1]: resistant
"Fas ligand: Fas ligand (Alexis) (protein, UniProt P48023 130-281, looked up) Tumor necrosis factor ligand …: QIGHPSPPPEKKELRKVAHLTGKSNSRSMPLEWEDTYGIVLLSGVKYKKGGLVINETGLYFVYSKVYFRGQSCNNLPLSHKVYMRNSKYPQDLVMMEGKMMSYCTTGQMWARSSYLGAVFNLTSADHLYVNVSELSLVNFEESQTFFGLYKL",–,–,Fas-mediated cell death (U266 cells): completely resistant
"rIL-12: recombinant IL-12 (Genetics Institute) (protein, UniProt P29459 23-219; P29460 23-328, looked up) Interleukin-12 subunit alpha: RNLPVATPDPGMFPCLHHSQNLLRAVSNMLQKARQTLEFYPCTSEEIDHEDITKDKTSTVEACLPLELTKNESCLNSRETSFITNGSCLASRKTSFMMALCLSSIYEDLKMYQVEFKTMNAKLLMDPKRQIFLDQNMLAVIDELMQALNFNSETVPQKSSLEEPDFYKTKIKLCILLHAFRIRAVTIDRVMSYLNAS Interleukin-12 subunit beta: IWELKKDVYVVELDWYPDAPGEMVVLTCDTPEEDGITWTLDQSSEVLGSGKTLTIQVKEFGDAGQYTCHKGGEVLSHSLLLLHKKEDGIWSTDILKDQKEPKNKTFLRCEAKNYSGRFTCWWLTTISTDLTFSVKSSRGSSDPQGVTCGAATLSAERVRGDNKEYEYSVECQEDSACPAAEESLPIEVMVDAVHKLKYENYTSSFFIRDIIKPDPPKNLQLKPLKNSRQVEVSWEYPDTWSTPHSYFSLTFCVQVQGKSKREKKDRVFTDKTSATVICRKNASISVRAQDRYYSSSWSEWASVPCS",–,–,tumor growth (MPC11 tumors): only slightly inhibits

# Further lines, with some results ahead:
"IC50, disruption of STAT3 DNA-binding activity (STAT3)",Frequency (out of 100 clones) (Full length STAT3) [%],Molecule,other results
–,9,SHPWNAQRELSV (listed as Homo sapiens),–
–,8,YPAPQPLVTKTS (listed as Homo sapiens),–
–,13,QDVHLTQQSRYT (listed as Homo sapiens),–
–,25,HY(S/P)PILVYQPSW,–
